Experimental data from IntAct's records for PubMed 18200045.

B1: Epidermal growth factor receptor substrate 15 (Homo sapiens), P42566 (parent)
chain: MAAAAQLSLTQLSSGNPVYEKYYRQVDTGNTGRVLASDAAAFLKKSGLPDLILGKIWDLADTDGKGILNKQEFFVALRLVACAQNGLEVSLSSLNLAVPPPRFHDTSSPLLISGTSAAELPWAVKPEDKAKYDAIFDSLSPVNGFLSGDKVKPVLLNSKLPVDILGRVWELSDIDHDGMLDRDEFAVAMFLVYCALEKEPVPMSLPPALVPPSKRKTWVVSPAEKAKYDEIFLKTDKDMDGFVSGLEVREIFLKTGLPSTLLAHIWSLCDTKDCGKLSKDQFALAFHLISQKLIKGIDPPHVLTPEMIPPSDRASLQKNIIGSSPVADFSAIKELDTLNNEIVDLQREKNNVEQDLKEKEDTIKQRTSEVQDLQDEVQRENTNLQKLQAQKQQVQELLDELDEQKAQLEEQLKEVRKKCAEEAQLISSLKAELTSQESQISTYEEELAKAREELSRLQQETAELEESVESGKAQLEPLQQHLQDSQQEISSMQMKLMEMKDLENHNSQLNWCSSPHSILVNGATDYCSLSTSSSETANLNEHVEGQSNLESEPIHQESPARSSPELLPSGVTDENEVTTAVTEKVCSELDNNRHSKEEDPFNVDSSSLTGPVADTNLDFFQSDPFVGSDPFKDDPFGKIDPFGGDPFKGSDPFASDCFFRQSTDPFATSSTDPFSAANNSSITSVETLKHNDPFAPGGTVVAASDSATDPFASVFGNESFGGGFADFSTLSKVNNEDPFRSATSSSVSNVVITKNVFEETSVKSEDEPPALPPKIGTPTRPCPLPPGKRSINKLDSPDPFKLNDPFQPFPGNDSPKEKDPEIFCDPFTSATTTTNKEADPSNFANFSAYPSEEDMIEWAKRESEREEEQRLARLNQQEQEDLELAIALSKSEISEA
partner: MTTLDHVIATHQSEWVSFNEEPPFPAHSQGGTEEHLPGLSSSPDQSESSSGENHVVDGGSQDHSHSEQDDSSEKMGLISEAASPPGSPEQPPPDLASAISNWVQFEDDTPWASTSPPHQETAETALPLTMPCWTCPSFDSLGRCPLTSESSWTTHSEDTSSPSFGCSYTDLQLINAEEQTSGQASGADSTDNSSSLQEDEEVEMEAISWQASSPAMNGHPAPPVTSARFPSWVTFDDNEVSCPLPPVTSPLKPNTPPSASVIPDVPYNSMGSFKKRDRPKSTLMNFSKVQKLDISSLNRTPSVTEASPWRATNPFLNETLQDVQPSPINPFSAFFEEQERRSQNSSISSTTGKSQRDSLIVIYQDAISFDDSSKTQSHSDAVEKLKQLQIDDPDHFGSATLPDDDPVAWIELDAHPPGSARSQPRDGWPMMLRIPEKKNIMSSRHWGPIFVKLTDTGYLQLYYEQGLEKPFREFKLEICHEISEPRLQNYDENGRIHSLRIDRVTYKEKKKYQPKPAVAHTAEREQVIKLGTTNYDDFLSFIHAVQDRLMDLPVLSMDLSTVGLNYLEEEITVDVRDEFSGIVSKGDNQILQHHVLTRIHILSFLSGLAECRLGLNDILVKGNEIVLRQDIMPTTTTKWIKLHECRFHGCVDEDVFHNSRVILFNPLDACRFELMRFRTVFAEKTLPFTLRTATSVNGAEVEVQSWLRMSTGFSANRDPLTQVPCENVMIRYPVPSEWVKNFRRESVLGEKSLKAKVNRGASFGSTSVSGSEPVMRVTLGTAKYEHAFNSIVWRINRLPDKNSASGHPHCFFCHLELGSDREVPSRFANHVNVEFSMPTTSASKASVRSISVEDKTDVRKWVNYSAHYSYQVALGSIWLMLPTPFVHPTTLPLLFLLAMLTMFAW

Variants of: B1
Settings: with ston2_human STON2, Q8WXE9
Y193D was tested, and the “effect of a mutation on the interaction” value was “decreasing interaction”.

Variants of: B1
Settings: with ston2_human STON2, Q8WXE9
Remark: another data set of the same source
W169A was tested, and the “effect of a mutation on the interaction” value was “decreasing interaction”.

Variants of: B1
Settings: with ston2_human STON2, Q8WXE9
Remark: another data set of the same source
In the case of W169A, the “effect of a mutation on the interaction” value is reported as “disrupting interaction”.

Variants of: B1
Settings: with ston2_human STON2, Q8WXE9
Remark: another data set of the same source
With V154E the “effect of a mutation on the interaction” value was “decreasing interaction”.

Variants of: B1
Settings: with ston2_human STON2, Q8WXE9
Remark: another data set of the same source
With V154E the “effect of a mutation on the interaction” value was “disrupting interaction”.

Variants of: B1
Settings: with ston2_human STON2, Q8WXE9
Remark: another data set of the same source
With W266A the “effect of a mutation on the interaction” value was “decreasing interaction”.
